Patent publication US20210214414A1 (Pfizer, published 2021)

Tests used:
Rabbit SLIT2-N = target: T1, Rabbit SLIT2-N (rabbit, UniProt G1TMD3 31-1121); experiment: HTRF competition: d2-labelled rabbit SLIT2-N binding to human ROBO2 on HEK293 cells; geometric mean, n=3
T1 construct: domain: SLIT2-N; d2-labelled in the HTRF assay
T1 sequence: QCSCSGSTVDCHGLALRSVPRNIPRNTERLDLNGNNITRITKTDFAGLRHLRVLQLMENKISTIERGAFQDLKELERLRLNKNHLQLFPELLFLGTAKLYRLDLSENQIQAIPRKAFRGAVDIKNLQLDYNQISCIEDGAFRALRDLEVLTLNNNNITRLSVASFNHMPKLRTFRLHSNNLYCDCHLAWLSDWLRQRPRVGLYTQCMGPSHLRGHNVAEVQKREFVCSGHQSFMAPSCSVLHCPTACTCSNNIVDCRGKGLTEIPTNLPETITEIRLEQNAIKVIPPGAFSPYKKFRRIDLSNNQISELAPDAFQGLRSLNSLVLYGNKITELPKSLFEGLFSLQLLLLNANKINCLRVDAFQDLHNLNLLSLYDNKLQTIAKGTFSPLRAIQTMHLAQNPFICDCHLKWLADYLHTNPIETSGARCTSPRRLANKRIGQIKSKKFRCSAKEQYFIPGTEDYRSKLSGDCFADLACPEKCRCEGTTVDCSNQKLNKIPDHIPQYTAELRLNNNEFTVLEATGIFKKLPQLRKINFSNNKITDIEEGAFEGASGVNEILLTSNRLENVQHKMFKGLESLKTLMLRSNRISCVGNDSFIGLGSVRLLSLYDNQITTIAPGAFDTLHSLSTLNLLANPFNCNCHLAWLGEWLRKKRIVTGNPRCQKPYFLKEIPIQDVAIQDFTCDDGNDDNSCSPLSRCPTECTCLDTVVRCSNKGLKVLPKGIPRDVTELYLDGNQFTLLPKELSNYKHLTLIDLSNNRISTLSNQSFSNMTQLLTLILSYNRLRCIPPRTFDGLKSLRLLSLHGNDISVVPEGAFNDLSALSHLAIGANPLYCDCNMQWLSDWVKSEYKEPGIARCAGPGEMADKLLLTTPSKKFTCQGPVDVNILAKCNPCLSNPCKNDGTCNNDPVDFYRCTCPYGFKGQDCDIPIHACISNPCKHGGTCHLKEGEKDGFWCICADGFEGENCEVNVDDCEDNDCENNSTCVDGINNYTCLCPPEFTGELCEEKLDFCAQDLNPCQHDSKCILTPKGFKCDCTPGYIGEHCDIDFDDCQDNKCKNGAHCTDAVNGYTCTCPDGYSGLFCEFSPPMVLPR
Protocol: (§1) After incubation, fluorescence at 665 nm and 620 nm was measured on an Envision multilabel plate reader. The HTRF Ratio was calculated as follows: fluorescence at 665 nm/fluorescence at 620 nm×10,000. […] The IC₅₀ for each SLITx-N was determined using an 11-point, 4-fold dilution series with a top concentration of 4000 nM.

Human SLIT2-N = target: T2, Human SLIT2-N (human, UniProt O94813 31-1121, limits assumed); experiment: HTRF competition: d2-labelled human SLIT2-N binding to human ROBO2 on HEK293 cells (competitor: cell surface ROBO2)
T2 construct: domain: SLIT2-N (N terminal fragment); Soluble analyte in SPR, d2-labelled in HTRF, overexpressed on HEK293 cells in flow cytometry; also called human SLIT2-N (N terminal fragment)
T2 sequence (looked up): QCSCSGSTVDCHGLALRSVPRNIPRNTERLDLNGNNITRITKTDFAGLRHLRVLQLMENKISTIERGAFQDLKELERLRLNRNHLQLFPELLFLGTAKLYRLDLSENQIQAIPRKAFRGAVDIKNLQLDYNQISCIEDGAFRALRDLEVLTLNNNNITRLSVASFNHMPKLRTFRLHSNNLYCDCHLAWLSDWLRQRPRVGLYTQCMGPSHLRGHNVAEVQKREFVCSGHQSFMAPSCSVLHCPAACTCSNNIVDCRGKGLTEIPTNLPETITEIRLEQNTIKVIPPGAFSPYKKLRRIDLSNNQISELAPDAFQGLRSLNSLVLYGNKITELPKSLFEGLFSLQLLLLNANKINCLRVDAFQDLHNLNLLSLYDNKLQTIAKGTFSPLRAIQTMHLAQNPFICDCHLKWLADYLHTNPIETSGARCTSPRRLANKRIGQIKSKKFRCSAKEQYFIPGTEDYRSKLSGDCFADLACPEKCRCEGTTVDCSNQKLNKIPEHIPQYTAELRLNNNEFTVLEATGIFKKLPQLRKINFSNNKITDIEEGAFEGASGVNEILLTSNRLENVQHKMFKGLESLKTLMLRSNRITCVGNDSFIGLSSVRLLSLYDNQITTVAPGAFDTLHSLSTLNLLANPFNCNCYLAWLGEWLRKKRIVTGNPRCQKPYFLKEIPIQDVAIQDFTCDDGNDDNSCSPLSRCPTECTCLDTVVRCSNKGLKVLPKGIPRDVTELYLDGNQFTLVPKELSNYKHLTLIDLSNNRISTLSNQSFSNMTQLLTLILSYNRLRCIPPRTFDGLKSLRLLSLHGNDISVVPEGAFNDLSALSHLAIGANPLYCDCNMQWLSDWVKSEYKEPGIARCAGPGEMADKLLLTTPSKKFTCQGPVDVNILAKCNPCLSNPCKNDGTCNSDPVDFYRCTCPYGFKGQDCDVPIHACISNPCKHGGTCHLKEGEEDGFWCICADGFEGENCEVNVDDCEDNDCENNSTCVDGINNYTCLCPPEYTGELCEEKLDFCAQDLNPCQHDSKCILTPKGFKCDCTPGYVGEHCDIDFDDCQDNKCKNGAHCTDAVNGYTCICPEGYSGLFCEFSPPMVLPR
Protocol: as §1

B1: ROBO2-Fc 2.2 (Fc fusion)
chain: SRLRQEDFPPRIVEHPSDVIVSKGEPTTLNCKAEGRPTPTIEWYKDGERVETDKDDPRSHRMLLPSGSLFFLRIVHGRRSKPDEGSYVCVARNYLGEAVSRNASLEVALLRDDFRQNPTDVVVAAGEPAILECQPPRGHPEPTIYWKKDKVRIDDKEERISIRGGKLMISNTRKSDAGMYTCVGTNMVGERDSDPAELTVFERGGSGGSEPKSSDKTHTCPPCPAPEAAGAPSVFLFPPKPKDTLMISRTPEVTCVVVDVSHEDPEVKFNWYVDGVEVHNAKTKPREEQYNSTYRVVSVLTVLHQDWLNGKEYKCKVSNKALPAPIEKTISKAKGQPREPQVYTLPPSREEMTKNQVSLTCLVKGFYPSDIAVEWESNGQPENNYKTTPPVLDSDGSFFLYSKLTVDKSRWQQGNVFSCSVMHEALHNHYTQKSLSLSPG
notes: Labelled with Alexa Fluor 647 in the flow cytometry assay; also called ROBO-Fc 2.2; ROBO2-Fc 2.2-AF647
Q: How did the IC50 (Rabbit SLIT2-N) turn out when B1 was run?
A: Its IC50 is 5.7 nM.

Q: And the IC50 (Human SLIT2-N)?
A: The IC50 was 7 nM.
